B1: SMG5 (parent)
chain: QEKLQVLMAEGLLPAVKVFLDWLR

Variants of: B1
Assay: protein stability index of a GFP-peptide fusion (GPS, HEK-293T) (PSI 1-6); higher = more stable
Conditions: c terminus: a fixed tail appended
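Note: lentivirally expressed fusions sorted by FACS into six bins by GFP to DsRed ratio, PSI derived from sequencing read proportions per bin multiplied by bin number.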

In order of rising protein stability index:
1. QEKLQVLMAEGLLPAVKVFLDWCR  1.08
2. QEKLQVLMAEGLLPAVKVFLDWTR  1.19
3. QEKLQVLMAEGLLPAVKVFLDWLA  1.21
4. QEKLQVLMAEGLLPAVKVFLDWER  1.26
5. QEKLQVLMAEGLLPAVKVFLDWHR  1.27
6. QEKLQVLMAEGLLPAVKVFLEWLR  1.33
7. QEKLQVLMAEGLLPAVKVFVDWLR  1.4
8. QEKLQVLMAEGLLPAVKVFKDWLR  1.41
9. QEKLQVLMAEGLLPAVKVFLDWLG  1.43
10. QEKLQVLMAEGLLPAVKVNLDWLR  1.53
11. QEKLQVLMAEGLLPAVKVFYDWLR  1.54
12. QEKLQVLMAEGLLPAVKVFLDMLR  1.57
13. QEKLQVLMAEGLLPAVKVFRDWLR  1.58
14. QEKLQVLMAEGLLPAVKVFDDWLR  1.59
15. QEKLQVLMAEGLLPAVKVFLDWLC  1.59
16. QEKLQVLMAEGLLPAVKVYLDWLR  1.6
17. QEKLQVLMAEGLLPAVKVFLDVLR  1.62
18. QEKLQVLMAEGLLPAVKVFLPWLR  1.65
19. QEKLQVLMAEGLLPAVKVFLDWVR  1.67
20. QEKLQVLMAEGLLPAVKVFLCWLR  1.68
21. QEKLQVLMAEGLLPAVKVFEDWLR  1.7
22. QEKLQVLMAEGLLPAVKVFLDWWR  1.7
23. QEKLQVLMAEGLLPAVKVFLDWAR  1.72
24. QEKLQVLMAEGLLPAVKVFLDWLQ  1.75
25. QEKLQVLMAEGLLPAVKVFPDWLR  1.76
26. QEKLQVLMAEGLLPAVKVFGDWLR  1.77
27. QEKLQVLMAEGLLPAVKVFLDWKR  1.83
28. QEKLQVLMAEGLLPAVKVFLDWLT  1.88
29. QEKLQVLMAEGLLPAVKVFLDWLM  1.89
30. QEKLQVLMAEGLLPAVKVWLDWLR  1.89
31. QEKLQVLMAEGLLPAVKVLLDWLR  1.9
32. QEKLQVLMAEGLLPAVKVFLDTLR  1.91
33. QEKLQVLMAEGLLPAVKVFLDWQR  1.91
34. QEKLQVLMAEGLLPAVKVFLDWLN  1.92
35. QEKLQVLMAEGLLPAVKVFLDWLI  1.93
36. QEKLQVLMAEGLLPAVKVFLDRLR  1.95
37. QEKLQVLMAEGLLPAVKVFLDILR  1.96
38. QEKLQVLMAEGLLPAVKVFLDWYR  1.97
39. QEKLQVLMAEGLLPAVKVFLDCLR  1.99
40. QEKLQVLMAEGLLPAVKVFLDWLD  2
41. QEKLQVLMAEGLLPAVKVFQDWLR  2.02
42. QEKLQVLMAEGLLPAVKVFIDWLR  2.02
43. QEKLQVLMAEGLLPAVKVFLMWLR  2.04
44. QEKLQVLMAEGLLPAVKVFLGWLR  2.04
45. QEKLQVLMAEGLLPAVKVFLDELR  2.05
46. QEKLQVLMAEGLLPAVKVFLAWLR  2.05
47. QEKLQVLMAEGLLPAVKVFLDFLR  2.09
48. QEKLQVLMAEGLLPAVKVRLDWLR  2.12
49. QEKLQVLMAEGLLPAVKVFLDYLR  2.13
50. QEKLQVLMAEGLLPAVKVQLDWLR  2.13
51. QEKLQVLMAEGLLPAVKVFLDSLR  2.17
52. QEKLQVLMAEGLLPAVKVPLDWLR  2.17
53. QEKLQVLMAEGLLPAVKVFLLWLR  2.2
54. QEKLQVLMAEGLLPAVKVFLDWPR  2.21
55. QEKLQVLMAEGLLPAVKVFLDWLF  2.23
56. QEKLQVLMAEGLLPAVKVFLDPLR  2.26
57. QEKLQVLMAEGLLPAVKVFLDNLR  2.28
58. QEKLQVLMAEGLLPAVKVFWDWLR  2.29
59. QEKLQVLMAEGLLPAVKVKLDWLR  2.35
60. QEKLQVLMAEGLLPAVKVFLDQLR  2.38
61. QEKLQVLMAEGLLPAVKVFLDWRR  2.38
62. QEKLQVLMAEGLLPAVKVFLDWIR  2.39
63. QEKLQVLMAEGLLPAVKVFLDWLK  2.45
64. QEKLQVLMAEGLLPAVKVFLDLLR  2.47
65. QEKLQVLMAEGLLPAVKVMLDWLR  2.48
66. QEKLQVLMAEGLLPAVKVFLDWLE  2.5
67. QEKLQVLMAEGLLPAVKVFLIWLR  2.5
68. QEKLQVLMAEGLLPAVKVFFDWLR  2.52
69. QEKLQVLMAEGLLPAVKVFLDKLR  2.53
70. QEKLQVLMAEGLLPAVKVFLKWLR  2.54
71. QEKLQVLMAEGLLPAVKVFLDWSR  2.57
72. QEKLQVLMAEGLLPAVKVFLDWNR  2.58
73. QEKLQVLMAEGLLPAVKVFLDWLH  2.6
74. QEKLQVLMAEGLLPAVKVFLNWLR  2.6
75. QEKLQVLMAEGLLPAVKVFLDWLS  2.62
76. QEKLQVLMAEGLLPAVKVFLDGLR  2.63
77. QEKLQVLMAEGLLPAVKVFMDWLR  2.64
78. QEKLQVLMAEGLLPAVKVFLDWGR  2.66
79. QEKLQVLMAEGLLPAVKVFLDWFR  2.67
80. QEKLQVLMAEGLLPAVKVFSDWLR  2.73
81. QEKLQVLMAEGLLPAVKVFLDHLR  2.73
82. QEKLQVLMAEGLLPAVKVSLDWLR  2.73
83. QEKLQVLMAEGLLPAVKVFLDWDR  2.75
84. QEKLQVLMAEGLLPAVKVFLDALR  2.8
85. QEKLQVLMAEGLLPAVKVFLDWLL  2.96
86. QEKLQVLMAEGLLPAVKVFLTWLR  2.98
87. QEKLQVLMAEGLLPAVKVFLYWLR  3.03
88. QEKLQVLMAEGLLPAVKVFCDWLR  3.11
89. QEKLQVLMAEGLLPAVKVFTDWLR  3.12
90. QEKLQVLMAEGLLPAVKVFLHWLR  3.17
91. QEKLQVLMAEGLLPAVKVFADWLR  3.26
92. QEKLQVLMAEGLLPAVKVFLDWLP  3.34
93. QEKLQVLMAEGLLPAVKVFLFWLR  3.72
94. QEKLQVLMAEGLLPAVKVFLDWMR  4.59

Reference: the supplement of paper PMC10567573
